What was measured:
[1] = immunoblot of total NKCC2 ± ManIA co-expression, HEK cells; settings: glycan lost; control: WT NKCC2
[2] = immunoblot of NKCC2 ± ManIA co-expression, OKP cells; settings: glycan changed form; control: untreated cells

Row | Protein | other: ManIA-induced down-regulation of NKCC2 protein [1] | other: ManIA-induced down-regulation of NKCC2 protein [2]
1 | NKCC2: N442Q/N452Q (protein) parent chain: MSVSIPSNSVPSSASRFQVHVINEGHGSAAAVGDSADPPHYEETSFGDEAQNRLRISFRPGNQECYDNFLQTGETAKTDTTFHAYDSHTNTYYLQTFGHNTMDAVPKIEYYRNTGSVSGPKVNRPSLLEIHEQLAKNVTVAPGSADRVANGDGMPGDEQAENKEEDMTGVVKFGWVKGVLVRCMLNIWGVMLFIRLSWIVGEAGIGLGVLIILLSTMVTSITGLSTSAIATNGFVRGGGAYYLISRSLGPEFGGSIGLIFAFANAVAVAMYVVGFAETVVDLLKESDSMMVDPTNDIRIIGSITVVILLGISVAGMEWEAKAQVILLVILLIAIANFFIGTVIPSNNEKKSRGFFNYQASIFAENFGPSFTKGEGFFSVFAIFFPAATGILAGANISGDLEDPQDAIPRGTMLAIFITTVAYIGVAICVAACVVRDATGSMNDTIVSGMNCNGSAACGLGYDFSRCQHEPCQYGLMNNFQVMSMVSGFGPLITAGIFSATLSSALASLVSAPKVFQALCKDNIFKGLQFFAKGYGKNNEPLRGYFLTFVIAMAFILIAELNVIAPIISNFFLASYALINFSCFHASYAKSPGWRPAYGIYNMWVSLFGAILCCAVMFVINWWAAVITYVIELFLYIYVTYKKPDVNWGSSTQALSYVSALDNALELTTVEDHVKNFRPQCIVLTGGPMTRPALLDITHAFTKNSGLCICCEVFVGPRKLCVKEMNSGMAKKQAWLIKNKIKAFYAAVAADCFRDGVRSLLQASGLGRMKPNTLVIGYKKNWRKAPLSELENYVGIIHDAFDFEIGVVIVRISQGFDISPVLQVQDELEKLEQERLALEAAIKDNECEEGKGGIRGLFKKAGKLNITKPAPKKDGNISSIQSMHVGEFNQKLVEASAQFKKKQGKGTIDVWWLFDDGGLTLLIPYILTLRKKWKDCKLRIYVGGKITRIEEEKISMASLLSKFRIKFADIHIIGDINIKPNKESWKVFEEMIEPYRLHESHKDLTTAEKLKRESPWKITDAELEAVKEKSYRQVRLNELLQEHSRAANLIVLSLPVARKGSISDLLYMAWLEILTKNLPPVLLVRGNHKNVLTFYS | decreases | –
2 | NKCC2: kifunensine 25 µM, 6 h (protein) parent chain: MSVSIPSNSVPSSASRFQVHVINEGHGSAAAVGDSADPPHYEETSFGDEAQNRLRISFRPGNQECYDNFLQTGETAKTDTTFHAYDSHTNTYYLQTFGHNTMDAVPKIEYYRNTGSVSGPKVNRPSLLEIHEQLAKNVTVAPGSADRVANGDGMPGDEQAENKEEDMTGVVKFGWVKGVLVRCMLNIWGVMLFIRLSWIVGEAGIGLGVLIILLSTMVTSITGLSTSAIATNGFVRGGGAYYLISRSLGPEFGGSIGLIFAFANAVAVAMYVVGFAETVVDLLKESDSMMVDPTNDIRIIGSITVVILLGISVAGMEWEAKAQVILLVILLIAIANFFIGTVIPSNNEKKSRGFFNYQASIFAENFGPSFTKGEGFFSVFAIFFPAATGILAGANISGDLEDPQDAIPRGTMLAIFITTVAYIGVAICVAACVVRDATGSMNDTIVSGMNCNGSAACGLGYDFSRCQHEPCQYGLMNNFQVMSMVSGFGPLITAGIFSATLSSALASLVSAPKVFQALCKDNIFKGLQFFAKGYGKNNEPLRGYFLTFVIAMAFILIAELNVIAPIISNFFLASYALINFSCFHASYAKSPGWRPAYGIYNMWVSLFGAILCCAVMFVINWWAAVITYVIELFLYIYVTYKKPDVNWGSSTQALSYVSALDNALELTTVEDHVKNFRPQCIVLTGGPMTRPALLDITHAFTKNSGLCICCEVFVGPRKLCVKEMNSGMAKKQAWLIKNKIKAFYAAVAADCFRDGVRSLLQASGLGRMKPNTLVIGYKKNWRKAPLSELENYVGIIHDAFDFEIGVVIVRISQGFDISPVLQVQDELEKLEQERLALEAAIKDNECEEGKGGIRGLFKKAGKLNITKPAPKKDGNISSIQSMHVGEFNQKLVEASAQFKKKQGKGTIDVWWLFDDGGLTLLIPYILTLRKKWKDCKLRIYVGGKITRIEEEKISMASLLSKFRIKFADIHIIGDINIKPNKESWKVFEEMIEPYRLHESHKDLTTAEKLKRESPWKITDAELEAVKEKSYRQVRLNELLQEHSRAANLIVLSLPVARKGSISDLLYMAWLEILTKNLPPVLLVRGNHKNVLTFYS | – | decreases
